“And” between values parts separate entries of the source, which are not always exact repeats. Equal values may be shown once.
B1: Chimeric channel of the TMD from OlCALHM1 and the CTD from HsCALHM2 (OlCALHM1c) (other)
chain: MDKFRMMFQFLQSNQESFMNGICGIMALASAQMYSSFEFSCPCMPEYNYTYGIGLLIIPPIWFFLLGFVLNNNVSVLAEEWKRPTGRRTKDPSVLRYMLCSITQRSLIAPAVWVSVTLMDGKSFLCAFSINLDIEKFGNASLVIGMTETEKLKFLARIPCKDLFEDNEVRVAATRYIKCISQACGWMFLLMMTFTAFLIRAIRPCFTQASYRQEAYWAQYRANEDQLFQRTAEVHSRVLAANNVRRFFGFVALNKDDEELIANFPVEGTQPRPQWNAITGVYLYRENQGLPLYSRLHKWAQGLAGNGAAPDNVEMALLPS
B2: Homo sapiens calcium homeostasis modulator 2 (HsCALHM2) (natural protein)
chain: MAALIAENFRFLSLFFKSKDVMIFNGLVALGTVGSQELFSVVAFHCPCSPARNYLYGLAAIGVPALVLFIIGIILNNHTWNLVAECQHRRTKNCSAAPTFLLLSSILGRAAVAPVTWSVISLLRGEAYVCALSEFVDPSSLTAREEHFPSAHATEILARFPCKENPDNLSDFREEVSRRLRYESQLFGWLLIGVVAILVFLTKCLKHYCSPLSYRQEAYWAQYRANEDQLFQRTAEVHSRVLAANNVRRFFGFVALNKDDEELIANFPVEGTQPRPQWNAITGVYLYRENQGLPLYSRLHKWAQGLAGNGAAPDNVEMALLPS
B3: Oryzias latipes CALHM1 truncated at the C terminus (OlCALHM1EM) (domain or fragment)
chain: MDKFRMMFQFLQSNQESFMNGICGIMALASAQMYSSFEFSCPCMPEYNYTYGIGLLIIPPIWFFLLGFVLNNNVSVLAEEWKRPTGRRTKDPSVLRYMLCSITQRSLIAPAVWVSVTLMDGKSFLCAFSINLDIEKFGNASLVIGMTETEKLKFLARIPCKDLFEDNEVRVAATRYIKCISQACGWMFLLMMTFTAFLIRAIRPCFTQAAFLKTKYWSHYIDIERKMFDETCKEHAKSFAKVCIHQYFENISGEMQNFHRHQSKDTSDAEEEEKQRSDEDKLLGIKAQEDMNKVL
B4: Caenorhabditis elegans calcium homeostasis modulator protein CLHM-1 (CeCLHM-1) (natural protein)
chain: MTTSINSVVTVFQNVFTNHGSTLLNGILIATTVGGQSLVRKLTFSCPCAYPLNIYHSLVFMFGPTAALLLIGITVNSTTWKLAHGFFFRVRDTRHSWKTTCVSWIEVLIQSSVAPIAWLFVVFLDGGYYRCYRSHEFCLISDAILCKNSTILNSYASTSSFNKISDNGKYCPPCICVPNPTDASYLEAESQIYAWGLLLFSGVAAFLVITCNRMCDKYTLVQRQYVETYKNVETQKFDAVAKEHASQLAEHNARAFFGQKDWTKRDWDWVSGIPEVNNPLFARLRLIAAEKTQQTMYTPLQLWNDNKGYRIPQPDLQLTQIIVDETKED

Molecular target: the molecule itself
Assay: cryo-EM structure

Protein | stoichiometry N
B1 | 8 and 9
B2 | 11
B3 | 8
B4 | 9

Source: publication PMC7439320 (Science Advances, 2020)
